14 molecules from patent publication US20180250395A1 (Janssen / Centocor, published 2018) can be followed below.

For test [1], the target named is CD47 ECD-C15G mutant, His-tagged (human, UniProt Q08722 19-141, N-terminus Q1 cyclized as pyroglutamate (C47B161 complex); glycans at 5, 16, 32, 55, 93 except in the endoH-deglycosylated C47B161 complex). The test is described as follows: Fab:CD47 complex isolated by chromatography and crystallized.
Method: The His-tagged CD47 was deglycosylated and further purified by affinity chromatography. The complex CD47:Fab was prepared by mixing Fabs with excess CD47 at a molar ratio ranging from 1.2:1.0 to 1.5:1.0. The complex was incubated overnight at 4° C., separated from the uncomplexed species using size exclusion chromatography, and concentrated to 7.5-20 mg/mL in 20 mM HEPES pH 7.4, 100 mM NaCl, 5% glycerol. The concentrated complex was then used to set up crystallization trials using the sitting drop method at 20° C. and crystals were optimized by varying the protein to reservoir ratio.
Test [2] has as its target T1, Cyno CD47 ECD protein, His-tagged, monomer (cyno).
T1 construct: extracellular domain; also called cynomolgus CD47
The test is described as follows: ProteOn SPR; cyno KD / human KD.

In test [3] the target is T2, recombinant human CD47 extracellular domain (ECD), His-tagged, monomer (human, UniProt Q08722 19-141).
T2 construct: C-terminal 6xHis tag; monomeric fraction from Superdex 200; also called human CD47 ECD; CD47-ECD monomer
Put plainly: ProteOn SPR.

Test [4] addresses T1, Cyno CD47 ECD protein, His-tagged, …. The test is described as follows: ProteOn SPR; mAb captured, ECD monomer as analyte.
The target of test [5] is T2, recombinant human CD47 extracellular …. The test is described as follows: ProteOn SPR; mAb captured, ECD monomer as analyte.
Test [6] has as its target T3, human CD47 on Jurkat cells (human, UniProt Q08722 19-323).
T3 construct: Endogenous CD47 of the cell lines; also called CD47-expressing Jurkat cells; CD47 on HL60 cells
Put plainly: MSD on Jurkat cells; blocks SIRP alpha-Fc binding.

Test [7] deals with T3, human CD47 on Jurkat cells. The test is described as follows: MSD on Jurkat cells; blocks SIRP alpha-Fc binding. This is another data set of the same source.
From the text: The ECL signal was plotted as a function of antibody concentrations, and EC₅₀ values were obtained from fitting the dose-response curves using non-linear regression model in GraphPad Prism.
Test [8] concerns the target T1, Cyno CD47 ECD protein, His-tagged, …. The test is described as follows: ProteOn SPR; mAb captured, ECD monomer as analyte. This is another data set of the same source.
Method: (§1) Kinetic binding affinities to human CD47 and Cyno CD47 ECD proteins were determined by a Protein Interaction Array System (ProteOn). Briefly, mAbs were captured on the sensor chip via anti-IgG-Fc to reach surface density of 200-350 RU. […] The dissociation was monitored for 30 min. Data were fitted to 1:1 binding model.
For test [9], the target named is T2, recombinant human CD47 extracellular …. The test is described as follows: ProteOn SPR; mAb captured, ECD monomer as analyte. The source holds these as a separate data set.
Method: as §1
Test [10] has as its target T1, Cyno CD47 ECD protein, His-tagged, …. The test is described as follows: ProteOn SPR; cyno KD / human KD. This is another data set of the same source.
Method: as §1
For test [11], the target named is T4, recombinant human CD47 extracellular domain (ECD), His-tagged, dimer (human, UniProt Q08722 19-141).
T4 construct: Dimeric fraction of the same His-tagged ECD; also called His-tagged CD47-ECD dimer protein
The test is described as follows: MSD; CD47-ECD dimer binding to captured SIRP alpha-Fc, mAb 10 µg/ml.

Test [12] has as its target T1, Cyno CD47 ECD protein, His-tagged, …. The test is described as follows: ProteOn SPR; mAb captured, ECD monomer as analyte. The source holds these as a separate data set.
The target of test [13] is T2, recombinant human CD47 extracellular …. The test is described as follows: ProteOn SPR; mAb captured, ECD monomer as analyte. The source holds these as a separate data set.
For test [14], the target named is T1, Cyno CD47 ECD protein, His-tagged, …. Put plainly: ProteOn SPR; cyno KD / human KD. The source holds these as a separate data set.

Read-outs that look alike come from different tables or passages of the source.

B1: C47B167 Fab (Fab, V domains shown)
VH: EVQLVQSGAEVKKPGESLKISCKGSGYTFTSYWMQWVRQMPGKGLEWMGEINPSNGRTDYNEKFRGQVTISADKSISTAYLQWSSLKASDTAMYYCARQGGSGYGNSYGFFDVWGQGTTVTVSS
VL: EIVLTQSPATLSLSPGERATLSCRASSSVSYMHWYQQKPGQAPRLLIYDTSRLASGIPARFSGSGSGTDFTLTISSLEPEDFAVYYCQQWRSNPYTFGGGTKVEIK
notes: His-tagged Fab from HEK293
As to B1, the binding result in test [1] is recorded as “binds”.

B2: C47B147 (antibody, V domains shown)
VH: EVQLVQSGAEVKKPGESLKISCKGSGYTFTDYNMHWVRQMPGKGLEWMGDIYPYNGGTGYNQKFKGQVTISADKSISTAYLQWSSLKASDTAMYYCARGGWHAMDSWGQGTLVTVSS
VL: DIVMTQSPDSLAVSLGERATINCRSRQSIVHTNRYTYLAWYQQKPGQPPKLLIYKVSNRFSGVPDRFSGSGSGTDFTLTISSLQAEDVAVYYCFQGSHVPYTFGGGTKLEIK
notes: HFA variant of C47B116; human IgG2sigma/kappa
The Kd is the free concentration of one partner at which half of the binding sites on the other are occupied at equilibrium, for simple one-to-one binding. By EC50 is commonly meant the midpoint of the concentration-response curve. A lower EC50 goes with an effect from little substance. Regarding B2, in [2], the “KD Ratio Cyno/Human” value came to 1.4. The “fold decrease of affinity against parent C47B116” value in test [3] is greater than 6 fold. Further, the dissociation constant (Kd) in test [4] was 13.5 nM; in test [5], 9.55 nM. The molecule also yielded a concentration giving a half-maximal response (EC50) in test [6] of 0.24 µg/mL.

B3: C47B151 (antibody, V domains shown)
VH: QVQLVQSGAEVKKPGSSVKVSCKASGYTFTDYNMHWVRQAPGQGLEWMGDIYPYNGGTGYNQKFKGRVTITADESTSTAYMELSSLRSEDTAVYYCARGGWHAMDSWGQGTLVTVSS
VL: DIVMTQSPDSLAVSLGERATINCRSRQSIVHTNRYTYLAWYQQKPGQPPKLLIYKVSNRFSGVPDRFSGSGSGTDFTLTISSLQAEDVAVYYCFQGSHVPYTFGGGTKLEIK
notes: as for B2
For B3, in test [2], the “KD Ratio Cyno/Human” value was 1.4. Also, in test [3], the “fold decrease of affinity against parent C47B116” value was greater than 6 fold. The Kd in test [4] was 9.34 nM; in [5] it was 6.89 nM. For the same molecule, the EC50 in test [6] came to 0.29 µg/mL.

B4: C47B148 (antibody, V domains shown)
VH: EVQLVQSGAEVKKPGESLKISCKGSGYTFTDYNMHWVRQMPGKGLEWMGDIYPYNGGTGYNQKFKGQVTISADKSISTAYLQWSSLKASDTAMYYCARGGWHAMDSWGQGTLVTVSS
VL: EIVLTQSPATLSLSPGERATLSCRSRQSIVHTNRYTYLAWYQQKPGQAPRLLIYKVSNRFSGIPARFSGSGSGTDFTLTISSLEPEDFAVYYCFQGSHVPYTFGGGTKLEIK
notes: as for B2
Molecule B4 yielded an EC50 in test [6] of 0.09 µg/mL.

B5: B6H12.2 (human IgG2sigma) (antibody, V domains shown)
VH: EVKLVESGGDLVKPGGSLKLSCAASGFTFSGYGMSWVRQTPDKRLEWVATITSGGTYTYYPDSVKGRFTISRDNAKNTLYLQIDSLKSEDTAIYFCARSLAGNAMDYWGQGTSVTVSS
VL: DIVMTQSPATLSVTPGDRVSLSCRASQTISDYLHWYQQKSHESPRLLIKFASQSISGIPSRFSGSGSGSDFTLSINSVEPEDVGVYYCQNGHGFPRTFGGGTKLEIK
notes: also called IgG2 Fc-silent B6H12.2; positive control anti-CD47 mAb
The molecule B5 displayed a concentration for a half-maximal effect (EC50) in test [7] of 0.21 µg/mL. Moreover, the values for the Kd in [8] and in test [9] were 0.572 nM and 0.539 nM, respectively. Besides, in [10], the “KD Ratio Cyno/Human” value is 1.1.

B6: B6H12.2 Fab (Fab, V domains shown)
VH: EVKLVESGGDLVKPGGSLKLSCAASGFTFSGYGMSWVRQTPDKRLEWVATITSGGTYTYYPDSVKGRFTISRDNAKNTLYLQIDSLKSEDTAIYFCARSLAGNAMDYWGQGTSVTVSS
VL: DIVMTQSPATLSVTPGDRVSLSCRASQTISDYLHWYQQKSHESPRLLIKFASQSISGIPSRFSGSGSGSDFTLSINSVEPEDVGVYYCQNGHGFPRTFGGGTKLEIK
notes: Fab used for co-crystallization
For the molecule B6, in test [1], the binding result is reported as “binds”.

B7: C47B91 (antibody, human IgG2, V domains shown)
VH: EVQLVQSGAEVKKPGESLKISCKGSGYSFTSYWIGWVRQMPGKGLEWMGIIYPGDSDTRYSPSFQGQVTISADKSISTAYLQWSSLKASDTAMYYCARVGRFASHQLDYWGQGTLVTVSS
VL: EIVLTQSPATLSLSPGERATLSCRASQSVNKALAWYQQKPGQAPRLLIYGASNRATGIPARFSGSGSGTDFTLTISSLEPEDFAVYYCQQGKGWPFTFGQGTKVEIK
notes: phage-derived; also called C47M91; parent C47B91
Take B7: the “% SIRP alpha Inhibition” value in [11] turned out to be 82.6%. In addition, the Kd in test [12] is 17.8 nM; in test [13] it was 5.95 nM; in test [8] it was 24.5 nM; in test [9], 15.6 nM. For the same molecule, the concentration for a half-maximal effect (EC50) in test [7] came out at 0.06 µg/mL. Further, the “KD Ratio Cyno/Human” value was determined as 3 in [14] and 1.6 in test [10].

B8: C47B222 Fab (Fab, V domains shown)
VH: EVQLVQSGAEVKKPGESLKISCKGSGYSFTDYWIGWVRQMPGKGLEWMGIIYPGDSDTRYSPSFQGQVTISADKSISTAYLQWSSLKASDTAVYYCARVGRFASHQLDYWGQGTLVTVSS
VL: EIVLTQSPATLSLSPGERATLSCRASQSVNNRLAWYQQKPGQAPRLLIHWASTRAIGIPARFSGSGSGTDFTLTISSLEPEDFAVYYCQQGASWPFTFGQGTKVEIK
notes: His-tagged Fab from HEK293
As for B8, in test [1], the binding result was “binds”.

B9: C47B227 Fab (Fab, V domains shown)
VH: EVQLVQSGAEVKKPGESLKISCKGSGYSFDDYWIGWVRQMPGKGLEWMGIIYPGDSDTRYSPSFQGQVTISADKSISTAYLQWSSLKASDTAVYYCARVGRFASHQLDYWGQGTLVTVSS
VL: EIVLTQSPATLSLSPGERATLSCRASQSVGSRLAWYQQKPGQAPRLLIYWASTRATGIPARFSGSGSGTDFTLTISSLEPEDFAVYYCQQGAYWPFTFGQGTKVEIK
notes: His-tagged Fab from HEK293
On to B9, for which the binding result in test [1] was “binds”.

B10: C47B152 (antibody, V domains shown)
VH: QVQLVQSGAEVKKPGSSVKVSCKASGYTFTDYNMHWVRQAPGQGLEWMGDIYPYNGGTGYNQKFKGRVTITADESTSTAYMELSSLRSEDTAVYYCARGGWHAMDSWGQGTLVTVSS
VL: EIVLTQSPATLSLSPGERATLSCRSRQSIVHTNRYTYLAWYQQKPGQAPRLLIYKVSNRFSGIPARFSGSGSGTDFTLTISSLEPEDFAVYYCFQGSHVPYTFGGGTKLEIK
notes: as for B2
In [6], B10 registered an EC50 of 0.26 µg/mL.

B11: C47B157 (human IgG2sigma) (antibody, V domains shown)
VH: QVQLVQSGAEVKKPGASVKVSCKASGYTFTDYNMHWVRQAPGQGLEWMGDIYPYNGGTGYNQKFKGRVTMTRDTSTSTVYMELSSLRSEDTAVYYCARGGWHAMDSWGQGTLVTVSS
VL: DIVMTQSPLSLPVTPGEPASISCRSRQSIVHTNRYTYLAWYLQKPGQSPQLLIYKVSNRFSGVPDRFSGSGSGTDFTLKISRVEAEDVGVYYCFQGSHVPYTFGGGTKLEIK
notes: HFA variant of C47B116; human IgG2sigma/kappa; also called IgG2 Fc-silent C47B157
As for B11, the “KD Ratio Cyno/Human” value in [2] stood at 1.1. Besides, in [3], the “fold change of affinity against parent C47B116” value was no more than 5 fold. For the same molecule, the Kd in test [4] came out at 3.71 nM; in [5], 3.53 nM. In addition, the EC50 in test [6] stood at 0.13 µg/mL.

B12: C47B161 Fab (Fab, V domains shown)
VH: QVQLVQSGAEVKKPGASVKVSCKASGYTFTDYNMHWVRQAPGQRLEWMGDIYPYNGGTGYNQKFKGRVTITRDTSASTAYMELSSLRSEDTAVYYCARGGWHAMDSWGQGTLVTVSS
VL: DIVMTQSPLSLPVTPGEPASISCRSRQSIVHTNRYTYLAWYLQKPGQSPQLLIYKVSNRFSGVPDRFSGSGSGTDFTLKISRVEAEDVGVYYCFQGSHVPYTFGGGTKLEIK
On to B12, for which the binding result in [1] was “binds”.

B13: C47B161 (human IgG2sigma) (antibody, V domains shown)
VH: QVQLVQSGAEVKKPGASVKVSCKASGYTFTDYNMHWVRQAPGQRLEWMGDIYPYNGGTGYNQKFKGRVTITRDTSASTAYMELSSLRSEDTAVYYCARGGWHAMDSWGQGTLVTVSS
VL: DIVMTQSPLSLPVTPGEPASISCRSRQSIVHTNRYTYLAWYLQKPGQSPQLLIYKVSNRFSGVPDRFSGSGSGTDFTLKISRVEAEDVGVYYCFQGSHVPYTFGGGTKLEIK
notes: HFA variant of C47B116; human IgG2sigma/kappa; also called IgG2 Fc-silent C47B161
B13: in test [2], the “KD Ratio Cyno/Human” value was 1. The “fold change of affinity against parent C47B116” value in test [3] was no more than 5 fold. Besides, the Kd in [4] stood at 2.96 nM; in [5], 2.87 nM. The molecule further yielded an EC50 in test [6] of 0.06 µg/mL.

B14: C47B116 (antibody, human IgG2, V domains shown)
VH: EVQLQQSGPELVKPGASVKISCKASGYTFTDYNMHWVKQSHGKSLEWIGDIYPYNGGTGYNQKFKSKATLTVDNSSSTAYMELRSLTSEDSAVYYCARGGWHAMDSWGQGTSVTVSS
VL: DVVMTQTPLSLPVSLGDQASISCRSRQSIVHTNRYTYLAWYLQKPGQSPKLLIYKVSNRFSGVPDRFSGSGSGTDFTLKISRVEAEDLGVYYCFQGSHVPYTFGGGTKLEIK
notes: hybridoma-derived, chimeric human IgG2 Fc-silent/human kappa; also called parent hybridoma mAb C47B116
With B14, the “KD Ratio Cyno/Human” value in [2] turned out to be 0.9; in test [10] it was 0.7. The half-maximal effective concentration (EC50) in test [7] came to 0.1 µg/mL; in test [6], 0.12 µg/mL. In addition, the Kd in test [4] turned out to be 0.95 nM; in test [5], 1.02 nM; in [8], 0.967 nM; in test [9], 1.41 nM.
